Results from US20110300138A1 (published 2011).

Key:
Experiment in all cases: cell-based or functional assay
[1] = biological target: wild type TSHR (human TSH receptor, full length) expressed in CHO cells (human) (UniProt P16473)
[2] = biological target: TSHR with Asp151 mutated to Ala, expressed in CHO cells (human) (UniProt P16473)
[3] = biological target: wild type human TSHR (full length) expressed in CHO cells (human) (UniProt P16473)
[4] = biological target: TSHR with Arg80 mutated to Ala expressed in CHO cells (human) (UniProt P16473)
[5] = biological target: TSHR with Gln235 mutated to Ala expressed in CHO cells (human) (UniProt P16473)
[6] = biological target: TSHR with Thr104 mutated to Ala (expressed in CHO cells) (human) (UniProt P16473)

TSH (ligand)
Cyclic AMP produced; TSH (2) [1]: 53.1 pmol/mL
Cyclic AMP produced; TSH (2); Experiment 1 [1]: 67.5 pmol/mL
Cyclic AMP produced; TSH (2); Experiment 2 [1]: 67.8 pmol/mL
% inhibition of TSH stimulation, mutated TSHR; TSH (2) (run at the end of assay) [2]: 9%
Mutated/Wild type (%) of cyclic AMP produced, TSH 0.01 ng/mL [2]: 209%
Mutated/Wild type (%) of cyclic AMP produced, TSH 0.03 ng/mL [2]: 149%
Mutated/Wild type (%) of cyclic AMP produced, TSH 0.1 ng/mL [2]: 99%
Mutated/Wild type (%) of cyclic AMP produced, TSH 0.3 ng/mL [2]: 80%
Mutated/Wild type (%) of cyclic AMP produced, TSH 1 ng/mL [2]: 66%
Mutated/wild type (%) of cyclic AMP produced; TSH 3 ng/mL [2]: 68%
Mutated/wild type (%) of cyclic AMP produced; test sample: TSH (3 ng/mL) [2]: 62%
Mutated/wild type (%) of cyclic AMP produced; test sample: TSH (2) (3 ng/mL, run at the end of assay) [2]: 44%
% inhibition of TSH stimulation, TSH (2) run at the end of assay, wild type TSHR [3]: 2%
Cyclic AMP produced (pmol/mL), TSH 0.01 ng/mL, wild type TSHR [3]: 2.03 pmol/mL
Cyclic AMP produced (pmol/mL), TSH 0.03 ng/mL, wild type TSHR [3]: 3.65 pmol/mL
Cyclic AMP produced (pmol/mL), TSH 0.1 ng/mL, wild type TSHR [3]: 9.65 pmol/mL
Cyclic AMP produced (pmol/mL), TSH 0.3 ng/mL, wild type TSHR [3]: 31.4 pmol/mL
Cyclic AMP produced (pmol/mL), TSH 1 ng/mL, wild type TSHR [3]: 61 pmol/mL
Cyclic AMP produced (pmol/mL), TSH 3 ng/mL alone, wild type TSHR [3]: 93.9 pmol/mL
Cyclic AMP produced (pmol/mL), TSH 3 ng/mL, wild type TSHR [3]: 82.6 pmol/mL
Cyclic AMP produced (pmol/mL), TSH (2) 3 ng/mL run at the end of assay, wild type TSHR [3]: 92.2 pmol/mL
Cyclic AMP produced, TSH 0.01 ng/mL [3]: 4 pmol/mL
Cyclic AMP produced, TSH 0.01 ng/mL, Experiment 1 [3]: 1.09 pmol/mL
Cyclic AMP produced, TSH 0.01 ng/mL, Experiment 2 [3]: 1.93 pmol/mL
Cyclic AMP produced, TSH 0.03 ng/mL [3]: 6.66 pmol/mL
Cyclic AMP produced, TSH 0.03 ng/mL, Experiment 1 [3]: 2.31 pmol/mL
Cyclic AMP produced, TSH 0.03 ng/mL, Experiment 2 [3]: 2.75 pmol/mL
Cyclic AMP produced, TSH 0.1 ng/mL [3]: 19.7 pmol/mL
Cyclic AMP produced, TSH 0.1 ng/mL, Experiment 1 [3]: 6.54 pmol/mL
Cyclic AMP produced, TSH 0.1 ng/mL, Experiment 2 [3]: 7.25 pmol/mL
Cyclic AMP produced, TSH 0.3 ng/mL [3]: 45 pmol/mL
Cyclic AMP produced, TSH 0.3 ng/mL, Experiment 1 [3]: 26.5 pmol/mL
Cyclic AMP produced, TSH 0.3 ng/mL, Experiment 2 [3]: 25.3 pmol/mL
Cyclic AMP produced, TSH 1 ng/mL [3]: 75.7 pmol/mL
Cyclic AMP produced, TSH 1 ng/mL, Experiment 1 [3]: 67.7 pmol/mL
Cyclic AMP produced, TSH 1 ng/mL, Experiment 2 [3]: 51 pmol/mL
Cyclic AMP produced, TSH 3 ng/mL, Experiment 1 (mean of duplicate) [3]: 83.5 pmol/mL
Cyclic AMP produced; TSH 3 ng/mL [3]: 87.2 pmol/mL
Cyclic AMP produced; TSH 3 ng/mL; Experiment 2 [3]: 69.7 pmol/mL
% inhibition of TSH stimulation; TSH (2) [4]: 16%
Cyclic AMP produced; TSH 3 ng/mL [4]: 105 pmol/mL
Cyclic AMP produced; TSH (2) [4]: 88.2 pmol/mL
Mutated/wild type (%) of cyclic AMP produced; TSH 3 ng/mL [4]: 124%
Mutated/wild type (%) of cyclic AMP produced; TSH (2) [4]: 94%
Cyclic AMP produced, TSH 0.01 ng/mL, Experiment 1 [5]: 1.75 pmol/mL
Cyclic AMP produced, TSH 0.01 ng/mL, Experiment 2 [5]: 3.42 pmol/mL
Cyclic AMP produced, TSH 0.03 ng/mL, Experiment 1 [5]: 2.89 pmol/mL
Cyclic AMP produced, TSH 0.03 ng/mL, Experiment 2 [5]: 4.55 pmol/mL
Cyclic AMP produced, TSH 0.1 ng/mL, Experiment 1 [5]: 5.97 pmol/mL
Cyclic AMP produced, TSH 0.1 ng/mL, Experiment 2 [5]: 7.77 pmol/mL
Cyclic AMP produced, TSH 0.3 ng/mL, Experiment 1 [5]: 17.6 pmol/mL
Cyclic AMP produced, TSH 0.3 ng/mL, Experiment 2 [5]: 17.1 pmol/mL
Cyclic AMP produced, TSH 1 ng/mL, Experiment 1 [5]: 44.2 pmol/mL
Cyclic AMP produced, TSH 1 ng/mL, Experiment 2 [5]: 31.7 pmol/mL
Cyclic AMP produced; TSH 3 ng/mL; Experiment 1 [5]: 46.6 pmol/mL
Cyclic AMP produced; TSH 3 ng/mL; Experiment 2 [5]: 37.1 pmol/mL
Experiment 1: % inhibition of TSH stimulation; TSH (2), run at the end of assay [5]: 13%
Experiment 1: Mutated/wild type (%) of cyclic AMP produced; TSH 3 ng/mL [5]: 70%
Experiment 1: Mutated/wild type (%) of cyclic AMP produced; TSH (2) 3 ng/mL, run at the end of assay [5]: 61%
Experiment 2: % inhibition of TSH stimulation; TSH (2), run at the end of assay [5]: 3%
Experiment 2: Mutated/wild type (%) of cyclic AMP produced; TSH 3 ng/mL [5]: 100%
Experiment 2: Mutated/wild type (%) of cyclic AMP produced; TSH (2) 3 ng/mL, run at the end of assay [5]: 71%
Mutated/Wild type (%) of cyclic AMP produced, TSH 0.01 ng/mL, Experiment 1 [5]: 161%
Mutated/Wild type (%) of cyclic AMP produced, TSH 0.01 ng/mL, Experiment 2 [5]: 177%
Mutated/Wild type (%) of cyclic AMP produced, TSH 0.03 ng/mL, Experiment 1 [5]: 125%
Mutated/Wild type (%) of cyclic AMP produced, TSH 0.03 ng/mL, Experiment 2 [5]: 165%
Mutated/Wild type (%) of cyclic AMP produced, TSH 0.1 ng/mL, Experiment 1 [5]: 91%
Mutated/Wild type (%) of cyclic AMP produced, TSH 0.1 ng/mL, Experiment 2 [5]: 107%
Mutated/Wild type (%) of cyclic AMP produced, TSH 0.3 ng/mL, Experiment 1 [5]: 67%
Mutated/Wild type (%) of cyclic AMP produced, TSH 0.3 ng/mL, Experiment 2 [5]: 68%
Mutated/Wild type (%) of cyclic AMP produced, TSH 1 ng/mL, Experiment 1 [5]: 65%
Mutated/Wild type (%) of cyclic AMP produced, TSH 1 ng/mL, Experiment 2 [5]: 62%
Mutated/wild type (%) of cyclic AMP produced; TSH 3 ng/mL; Experiment 1 [5]: 56%
Mutated/wild type (%) of cyclic AMP produced; TSH 3 ng/mL; Experiment 2 [5]: 53%
% inhibition of TSH stimulation; TSH (2), run at the end of assay [6]: 10%
Cyclic AMP produced (pmol/mL), TSH 0.01 ng/mL, Experiment 1 [6]: 2.58 pmol/mL
Cyclic AMP produced (pmol/mL), TSH 0.01 ng/mL, Experiment 2 [6]: 4.28 pmol/mL
Cyclic AMP produced (pmol/mL), TSH 0.03 ng/mL, Experiment 1 [6]: 3.2 pmol/mL
Cyclic AMP produced (pmol/mL), TSH 0.03 ng/mL, Experiment 2 [6]: 5.71 pmol/mL
Cyclic AMP produced (pmol/mL), TSH 0.1 ng/mL, Experiment 1 [6]: 3.64 pmol/mL
Cyclic AMP produced (pmol/mL), TSH 0.1 ng/mL, Experiment 2 [6]: 9.8 pmol/mL
Cyclic AMP produced (pmol/mL), TSH 0.3 ng/mL, Experiment 1 [6]: 5.38 pmol/mL
Cyclic AMP produced (pmol/mL), TSH 0.3 ng/mL, Experiment 2 [6]: 35.7 pmol/mL
Cyclic AMP produced (pmol/mL), TSH 1 ng/mL, Experiment 1 [6]: 15.8 pmol/mL
Cyclic AMP produced (pmol/mL), TSH 1 ng/mL, Experiment 2 [6]: 57.1 pmol/mL
Cyclic AMP produced (pmol/mL), TSH 3 ng/mL, Experiment 1 [6]: 34.5 pmol/mL
Cyclic AMP produced (pmol/mL), TSH 3 ng/mL, Experiment 2 [6]: 58.5 pmol/mL
Cyclic AMP produced; TSH 3 ng/mL alone [6]: 63.7 pmol/mL
Cyclic AMP produced; TSH (2) 3 ng/mL, run at the end of assay [6]: 57 pmol/mL
Mutated/Wild type (%), TSH 0.01 ng/mL, Experiment 1 [6]: 188%
Mutated/Wild type (%), TSH 0.01 ng/mL, Experiment 2 [6]: 204%
Mutated/Wild type (%), TSH 0.03 ng/mL, Experiment 1 [6]: 203%
Mutated/Wild type (%), TSH 0.03 ng/mL, Experiment 2 [6]: 127%
Mutated/Wild type (%), TSH 0.1 ng/mL, Experiment 1 [6]: 199%
Mutated/Wild type (%), TSH 0.1 ng/mL, Experiment 2 [6]: 95%
Mutated/Wild type (%), TSH 0.3 ng/mL, Experiment 1 [6]: 168%
Mutated/Wild type (%), TSH 0.3 ng/mL, Experiment 2 [6]: 100%
Mutated/Wild type (%), TSH 1 ng/mL, Experiment 1 [6]: 99%
Mutated/Wild type (%), TSH 1 ng/mL, Experiment 2 [6]: 79%
Mutated/Wild type (%), TSH 3 ng/mL, Experiment 1 [6]: 72%
Mutated/Wild type (%), TSH 3 ng/mL, Experiment 2 [6]: 74%
Mutated/wild type (%) of cyclic AMP produced; TSH 3 ng/mL alone [6]: 76%
Mutated/wild type (%) of cyclic AMP produced; TSH (2) 3 ng/mL, run at the end of assay [6]: 68%
